The target in one assay is T1, recombinant human TfR-1 (human, UniProt P02786 89-760).
T1 construct: extracellular domain; also called hTfR1; human transferrin receptor-1
Description: phage ELISA. As for the experimental part: (§1) After the third round of selection, instead of pooling bacterial colonies, individual phagemid clones were grown in 1 ml of 2TY medium containing glucose and ampicillin in 96-well blocks and used to rescue the phages. After an overnight culturing, bacteria were spun down and an aliquot of the phage supernatant was sent for Sanger sequencing (Genewiz); VNAR CDR3 sequences were identified using BioEdit (a sequence alignment editor). Another aliquot was blocked with 2.5% milk for phage ELISAs. High-binding ELISA plates (Greiner) were coated with 1 μg/ml of recombinant human or mouse TfR-1. The plates were then blocked with 2.5% milk in PBST. Blocked phages were added to the blocked plates and the VNAR-phage clones binding to the antigens were detected with HRP-labelled anti-M13 coat protein antibodies (Sino Biological), and chromogenic TMB substrate (KLM)
For orientation: ELISA stands for enzyme-linked immunosorbent assay.

Another assay has as its target T2, recombinant mouse TfR-1 (mouse, UniProt Q62351 89-763).
T2 construct: Bought recombinant protein; also called mTfR1
Description: phage ELISA. The method, then:
as §1

Experimental findings from US20210395381A1 (OSSIANIX, published 2021) are described below.

T2 sequence (Q62351 89-763 limits assumed): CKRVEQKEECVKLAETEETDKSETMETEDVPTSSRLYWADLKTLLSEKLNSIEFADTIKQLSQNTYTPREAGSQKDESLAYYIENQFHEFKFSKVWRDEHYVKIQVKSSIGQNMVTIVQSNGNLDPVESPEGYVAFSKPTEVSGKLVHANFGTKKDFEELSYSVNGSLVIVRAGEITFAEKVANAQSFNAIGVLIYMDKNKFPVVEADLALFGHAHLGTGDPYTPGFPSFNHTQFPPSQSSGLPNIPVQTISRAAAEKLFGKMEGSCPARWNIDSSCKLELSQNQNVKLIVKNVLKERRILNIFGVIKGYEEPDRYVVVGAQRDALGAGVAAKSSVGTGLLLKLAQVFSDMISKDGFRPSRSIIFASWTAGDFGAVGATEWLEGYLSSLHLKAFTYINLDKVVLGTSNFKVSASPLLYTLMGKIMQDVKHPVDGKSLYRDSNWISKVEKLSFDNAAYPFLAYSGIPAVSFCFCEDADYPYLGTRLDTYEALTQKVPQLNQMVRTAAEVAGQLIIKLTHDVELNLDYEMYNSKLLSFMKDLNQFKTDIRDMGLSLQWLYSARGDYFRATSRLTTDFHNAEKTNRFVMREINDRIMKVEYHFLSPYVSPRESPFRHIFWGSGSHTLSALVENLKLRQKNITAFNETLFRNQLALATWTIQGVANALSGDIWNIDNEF
T1 sequence (P02786 89-760): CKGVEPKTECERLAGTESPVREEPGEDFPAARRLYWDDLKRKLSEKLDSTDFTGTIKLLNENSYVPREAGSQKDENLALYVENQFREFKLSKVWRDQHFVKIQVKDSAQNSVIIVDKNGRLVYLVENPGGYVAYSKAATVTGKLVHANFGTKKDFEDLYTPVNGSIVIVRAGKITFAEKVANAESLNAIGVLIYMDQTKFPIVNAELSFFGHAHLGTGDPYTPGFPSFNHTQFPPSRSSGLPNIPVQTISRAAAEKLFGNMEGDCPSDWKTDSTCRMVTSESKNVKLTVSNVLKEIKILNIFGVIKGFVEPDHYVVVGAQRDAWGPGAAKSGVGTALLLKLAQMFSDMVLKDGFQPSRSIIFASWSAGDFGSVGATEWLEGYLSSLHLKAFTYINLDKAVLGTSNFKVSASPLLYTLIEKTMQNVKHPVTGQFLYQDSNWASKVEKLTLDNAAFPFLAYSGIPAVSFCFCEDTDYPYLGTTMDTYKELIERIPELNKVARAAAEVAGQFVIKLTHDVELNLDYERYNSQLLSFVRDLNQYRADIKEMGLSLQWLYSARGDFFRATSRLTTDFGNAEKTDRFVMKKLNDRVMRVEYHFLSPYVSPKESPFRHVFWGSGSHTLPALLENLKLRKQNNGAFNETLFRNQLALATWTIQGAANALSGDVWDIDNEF

B1: Clone 10 (VNAR)
VNAR: ARVDQTPQTITKETGESLTINCVLRDSNCALSNLYWYRKKSGSTNEESISLGGRYVETVNSGSKSFSLRINDLTVEDSGTYRCNVVQYPTAKCRQVDVYGGGTAVTVNA
notes: VNAR on phage
For the molecule B1, the binding result with recombinant human TfR-1 and with recombinant mouse TfR-1 was “binds” throughout.

B2: Clone 18 (VNAR)
VNAR: ARVDQTPQTITKETGESLTINCVLRDSNCALSSTYWYRKKSDSTNEESISKGGRYVETVNSGSKSFSLRINDLTVEDSGTYRCKVCTGMSCPCLGRRQTDVYGGGTAVTVNA
notes: VNAR on phage
As to B2, the binding result with recombinant human TfR-1 and in the assay with recombinant mouse TfR-1 was “binds” throughout.

B3: Clone 15 (VNAR)
VNAR: ARVDQTPRSVTKETGESLTINCVLRDASYELGSTCWYRKKSGSTNEESISKGGRYVETVNSGSKSFSLRINDLTVEDGGTYRCGAPRWQMGGQWCDGGTAACRSGMAEVAACGDGTAVTVNA
notes: VNAR on phage
B3: the binding result with recombinant human TfR-1 and with recombinant mouse TfR-1 was “binds” in each case.

B4: Clone 11 (VNAR)
VNAR: ARVDQTPQTITKETGESLTINCVLRDSNCALPSTYWYRKKSGSTNEESISKGGRYVETVNSGSKSFSLRINDLTVEDSGTYRCNVQWLWSFSCLPCVEDVYGGGTVVTVNA
notes: VNAR on phage
As for B4, the binding result in the assay with recombinant human TfR-1 and with recombinant mouse TfR-1 was “binds” throughout.

B5: Clone 28 (VNAR)
VNAR: ARVDQTPQTITKETGESLTINCVLRDSICALSSTHWYRKKSGSTNEESISKGGRYVETVNSGSKSFSLRINDLTVEDSGTYRCNVRTAQGTLCGDVSDVYGDGTAVTVNA
notes: VNAR on phage
For the molecule B5, the binding result in the assay with recombinant human TfR-1 and in the assay with recombinant mouse TfR-1 was “binds” each time.

B6: Clone 14 (VNAR)
VNAR: ARVDQTPQTITKETGESLTINCVLRDSNCALPSTYWYRKKSGSTNEESISKGGRYVETVNSGSKSFSLRINDLTVKDSGTYRCNVMVFQVSGDYSRLEDVYGGGTVVTVNA
notes: VNAR on phage
Regarding B6, the binding result in the assay with recombinant human TfR-1 and with recombinant mouse TfR-1 was “binds” throughout.

B7: Clone 36 (VNAR)
VNAR: ARVDQTPQTITKETGESLTINCVLRDSNCALPSTYWYRKKSGSTNEESISKGGRYVETVNSGSKSFSLRINDLVVEDSGTYRCNVHCYGGDLHQLDVYGGGTAVTVNA
notes: VNAR on phage
Turning to B7, in the assay with recombinant mouse TfR-1, the binding result is listed as “no binding”.

B8: Clone 16 (VNAR)
VNAR: ARVDQTPQTITKETGESLTINCVLRDSNCALSSTYWYRKKSGSTNEENISKGGRYVETVNSGSKSFSLRINDLTVEDSGTYRCKVQSAQGMGLNGCKPGRVDVYGDGTAVTVNA
notes: VNAR on phage
In the case of B8, the binding result with recombinant human TfR-1 and with recombinant mouse TfR-1 was “binds” in each case.

B9: Clone 23 (VNAR)
VNAR: ARVDQTPQTVTKETGESLTINCVLRDSNCDLSRTYWYRKKSGSTNEESISKGGRYVETVNSGSKSFSLRINDLTVEDSGTYRCNVGGDLCGDQRDVYGGGTAVTVNA
notes: VNAR on phage
On to B9, for which the binding result with recombinant human TfR-1 and with recombinant mouse TfR-1 was “binds” in each case.

B10: Clone 19 (VNAR)
VNAR: ARVDQTPQTITKETGESLTINCVLRDSNCALSSTYWYRKKSGSTNEESISKGGRYVETVNSGSKSFSLRINDLTVEDSGTYRCNVGQAQRLRSNVDDVYGGGTVVTVNA
notes: VNAR on phage
For B10, the binding result with recombinant human TfR-1 and with recombinant mouse TfR-1 was “binds” in each case.

B11: Clone 1 (VNAR)
VNAR: ARVDQTPQTITKETGESLTINCVLRDNNCALSTTYWYRKKSGSTNEESISLGGRYVETVNSGSKSFSLRINDLTVEDSGTYRCNVSDVVSCDDGWNWLDVYGGGTAVTVNA
notes: VNAR on phage
For B11, the binding result with recombinant human TfR-1 and with recombinant mouse TfR-1 was “binds” in each case.

B12: Clone 2 (VNAR)
VNAR: ARVDQTPQTITKETGESLTINCVLRDSNCELSSTYWYRKKSDSTNEASISKGGRYVETVNSGSKSFSLKINDLTVEDSGTYRCNVFTSDSYDLGDVYGGGTVVTVNA
notes: VNAR on phage
Turning to B12, the binding result with recombinant human TfR-1 and with recombinant mouse TfR-1 was “binds” each time.

B13: Clone 17 (VNAR)
VNAR: ARVDQTPQTITKETGESLTINCVLRDSNCALSNLYWYRKKSGSTNEESISLGGRYVETVNSGSKSFSLRINDITVEDSGRYRCNVYNFFTYQCRWFQSDVYGDGTAVTVNA
notes: VNAR on phage
As for B13, the binding result with recombinant human TfR-1 and with recombinant mouse TfR-1 was “binds” each time.

B14: Clone 21 (VNAR)
VNAR: ARVDQTPRVTKETGESLTINCVLRDNNCALSTTYWYRKKSGSTNEENISKGGRYVETVNSGSKSFSLRINDLTVEDSGTYRCNVYMTACSNDMDVYGGGTVVTVNA
notes: VNAR on phage
In the case of B14, the binding result in the assay with recombinant human TfR-1 and with recombinant mouse TfR-1 was “binds” in each case.

B15: Clone 40 (VNAR)
VNAR: ARVDQTPQTITKETGESLTINCVLRDSNCALSSTYWYRKKSGSTNEESISKGGRYVETVNSGSKSFSLRINDLTVEDSGTYRCKVVQFEKDCQGLLRQTNDVYGGGTVVTVNA
notes: VNAR on phage
In the case of B15, the binding result with recombinant mouse TfR-1 is reported as “no binding”.

B16: Clone 13 (VNAR)
VNAR: ARVDQTPQTITKQTGESLTINCVLRDSNCALSSTYWYRKKSGSTNEESISLGGRYVETVNSGSKSFSLRINDLTVEDSGTYRCNVRRLQAWGSCRGGDVYGGGTVVTVNA
notes: VNAR on phage
Take B16: the binding result with recombinant human TfR-1 and in the assay with recombinant mouse TfR-1 was “binds” in each case.

B17: Clone 27 (VNAR)
VNAR: ARVDQTPRSVTKETGESLTINCVLRDASYALGSTCWYRKKSGSTNEESISKGGRYVETVNSGSKSFSLRINDLTVEDSGTYRCNVSRIGQYLCQARSDVYGDGTAVTVNA
notes: VNAR on phage
B17: the binding result in the assay with recombinant human TfR-1 and with recombinant mouse TfR-1 was “binds” each time.

B18: Clone 3 (VNAR)
VNAR: ARVDQTPQTITKETGESLTINCVLRDSNCALPSTYWYRKKSGSTNEESISKGGRYVETVNSGSKSFSLRINDLTVKDSGTYRCNVVQEPYSCKGRDDVYGGGTAVTVNA
notes: VNAR on phage
On to B18, for which the binding result with recombinant human TfR-1 and with recombinant mouse TfR-1 was “binds” each time.

B19: Clone 20 (VNAR)
VNAR: ARVDQTPRSVTKETGESLTINCVLRDSNCALPSTYWYRKKSGSTNEESISKGGRYVETVNSGSKSFSLRINDLTVKDSGTYRCNVKWDCRYQCICVSADVYGDGTAVTVNA
notes: VNAR on phage
On to B19, for which the binding result in the assay with recombinant human TfR-1 and in the assay with recombinant mouse TfR-1 was “binds” each time.

B20: Clone 39 (VNAR)
VNAR: ARVDQTPQTITKETGESLTINCVLRDSNCELSSTYWYRKKSGSTNEESISLGGRYVETVNSGSKSFSLRINDLTVEDSGTYRCNVQSAMLMLCLSRFDVYGGGTAVTVNA
notes: VNAR on phage
B20: the binding result with recombinant mouse TfR-1 is recorded as “no binding”.

B21: Clone 25 (VNAR)
VNAR: ARVDQTPRSVTKETGESLTINCVLRDSICALSSTYWYRKKSGSTNEESISKGGRYVETVNSGSKSFSLKINDLTVEDSGTYRCNVFTEMRGRCWAWGVDVYGDGTAVTVNA
notes: VNAR on phage
On to B21, for which the binding result with recombinant human TfR-1 and with recombinant mouse TfR-1 was “binds” in each case.

B22: Clone 26 (VNAR)
VNAR: ARVDQTPQTITKETGESLTINCVLRDSNCALSSTLWYRTKSGSRNEESISKGGRYVETVNSGSKSFSLKINDLTVEDSGTYRCNVCMGVTCNHVPDVYGGGTVVTVNA
notes: VNAR on phage
As to B22, the binding result with recombinant human TfR-1 and with recombinant mouse TfR-1 was “binds” each time.

B23: Clone 22 (VNAR)
VNAR: ARVDQTPQTITKETGESLTINCVLRDSNCALSNLYWYRKKSGSTNEESISLGGRYVETVNSGSKSFSLRINDLTVEDSGTYRCNVQQQSSGTFYDVYGGGTAVTVNA
notes: VNAR on phage
Take B23: the binding result with recombinant human TfR-1 and with recombinant mouse TfR-1 was “binds” each time.

B24: Clone 24 (VNAR)
VNAR: ARVDQTPQTITKETGESLTINCVLRDSNCALPSTYWYRKKSGSTNEESISKGGRYVETVNSGSKSFSLRINDLTVKDSGTYRCKVGPRCMGPNWQSYSCDVYGGGTVVTVNA
notes: VNAR on phage
As for B24, the binding result with recombinant human TfR-1 and with recombinant mouse TfR-1 was “binds” each time.

B25: Clone 35 (VNAR)
VNAR: ARVDQTPQTITKETGESLTINCVLRDSNCALSSTYWYRKKSDSTNEESISKGGRYVETVNSGSKSFSLRINDLTVKDSGTYRCNVSEDLQAICCWNDVYGDGTAVTVNA
notes: VNAR on phage
Turning to B25, in the assay with recombinant mouse TfR-1, the binding result is listed as “no binding”.

B26: Clone 37 (VNAR)
VNAR: ARVDQTPQTITKETGESLTINCVLRDSNCALSSTYWYRKKSDSTNEESISKGGRYVETVNSGSKSFSLRINDLTVKDSGTYRCNVSEDLQAICCWNDVYGDGTAVTVNA
notes: VNAR on phage
With B26, the binding result with recombinant mouse TfR-1 is “no binding”.

B27: Clone 12 (VNAR)
VNAR: ARVDQTPRSVTKETGESLTINCVLRDASYELGSTCWYRKKSGSTNEESISKGGRYVETVNSGSKSFSLRINDLTVEDGGTYRCGAWSRLSSSWGCDVGLQCMGCWDLWAACGDGTAVTVNA
notes: VNAR on phage
With B27, the binding result in the assay with recombinant human TfR-1 and with recombinant mouse TfR-1 was “binds” throughout.

B28: Clone 29 (VNAR)
VNAR: ARVDQTPQTITKETGESLTINCVLRDSNCALSSTLWYRTKSGSRNEESISKGGRYVETVNSGSKSFSLRINDLTVEDSGTYRCNVQQGCESYNWMVDVYGGGTAVTVNA
notes: VNAR on phage
Consider B28, for which the binding result in the assay with recombinant human TfR-1 and in the assay with recombinant mouse TfR-1 was “binds” throughout.
